Each sequence was assayed against Fes (UniProt P07332) (assay: phosphorylation enrichment, bacterial display (enrichment ratio); higher = better substrate or ligand; peptides without Tyr show the background).
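Further: 11-residue human phosphosite peptides and single-mutation variants displayed on the E. coli surface, counted by deep sequencing, each peptide's frequency after selection divided by its frequency in the unselected input library; frequency after pTyr selection over input frequency; kinase dosed for 20-30% of maximal phosphorylation in three min.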

Chain of Fes (P07332 whole entry, looked up): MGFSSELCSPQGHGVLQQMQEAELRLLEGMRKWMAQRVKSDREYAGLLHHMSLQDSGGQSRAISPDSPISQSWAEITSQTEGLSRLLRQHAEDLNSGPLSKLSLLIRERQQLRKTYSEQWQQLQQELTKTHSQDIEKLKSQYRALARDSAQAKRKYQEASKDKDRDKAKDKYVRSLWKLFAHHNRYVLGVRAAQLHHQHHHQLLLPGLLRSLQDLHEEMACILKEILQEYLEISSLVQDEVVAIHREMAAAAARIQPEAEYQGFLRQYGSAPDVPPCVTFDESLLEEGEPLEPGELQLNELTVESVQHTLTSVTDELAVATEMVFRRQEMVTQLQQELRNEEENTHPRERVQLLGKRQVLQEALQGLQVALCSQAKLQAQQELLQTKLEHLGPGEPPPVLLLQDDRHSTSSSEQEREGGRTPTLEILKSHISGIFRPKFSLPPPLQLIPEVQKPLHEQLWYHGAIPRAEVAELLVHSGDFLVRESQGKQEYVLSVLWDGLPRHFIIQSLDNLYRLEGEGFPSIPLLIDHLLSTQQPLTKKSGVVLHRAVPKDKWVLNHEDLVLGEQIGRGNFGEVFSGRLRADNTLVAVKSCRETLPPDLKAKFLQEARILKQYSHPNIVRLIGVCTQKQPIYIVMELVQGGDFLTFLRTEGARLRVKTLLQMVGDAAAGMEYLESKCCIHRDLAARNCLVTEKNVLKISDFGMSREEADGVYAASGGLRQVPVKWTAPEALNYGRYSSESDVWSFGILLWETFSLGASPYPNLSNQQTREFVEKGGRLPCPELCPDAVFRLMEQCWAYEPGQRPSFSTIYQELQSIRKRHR

Compared with SQQTFYRVSNM [ABCD1_Y181_YF], VRKRSYSAGNA [KANK1_Y324] is lower in phosphorylation enrichment: 0.741 for the first, 0.621 for the second.

Compared with KRRGPYETSPS [PLPP7_Y172], KSLFHHRQFSA [CPS1_Y1491_Y1491H_YF] is higher in phosphorylation enrichment: 0.495 for the first, 0.543 for the second.

First: QQLVAYFSKHA [SRC_Y232_YF]
Second: QNTGHYSSENT [TMEFF2_Y361_D364E]
The phosphorylation enrichment of the first is lower: 1.15 for the first, 1.33 for the second.

Going from SLLTDDSPQLQ [OTC_Y345_Y345D] to ESDYPYSSSYE [SRPK2_Y427_T426P], the phosphorylation enrichment falls from 1.29 to 1.18.

Compared with CQGSLYPSNHD [LRIG1_Y996], STEVIYLPRRK [STK11_Y36_Q37L] is lower in phosphorylation enrichment: 0.979 for the first, 0.589 for the second.

Going from IEDPFYGNDFD [ACP1_Y133_S137F_YF] to GVLDIYGFDIL [MYO1A_Y382_E385D], the phosphorylation enrichment falls from 1.21 to 1.07.

Compared with FNNFGYGNDGF [HNRNPH3_Y161_YF], LSSEMYVKSFT [F5_Y2149_YF] is higher in phosphorylation enrichment: 0.939 for the first, 1.27 for the second.

First: NNRVFYDNSDR [RS1_Y177_G178D]
Second: AGEGSYALDSE [PES1_Y265_T264S]
The phosphorylation enrichment of the first is lower: 0.628 for the first, 1.19 for the second.

Compared with TFGVVYRAKDK [CDK11B_Y453_YF], EREFKYGAHNH [OAT_Y50_Y55H_YF] is lower in phosphorylation enrichment: 0.798 for the first, 0.545 for the second.

Compared with RFLRGYEQDAF [HLA-A_Y137_R138E_YF], EKLQKYYRQNP [EHHADH_Y682] is lower in phosphorylation enrichment: 1.21 for the first, 0.667 for the second.

Going from QRIYQYIQSRF [DYRK1B_Y273] to RMSRSYPTGLA [ADM_Y52_S50R], the phosphorylation enrichment falls from 2.48 to 0.594.

Going from RTVDVYFGPRM [KIRREL3_Y332] to KVALPYKPYFY [POLE_Y100], the phosphorylation enrichment falls from 1.14 to 0.963.

Going from NFPGGYSGSVK [MCPH1_Y606_L602F] to HYMELYDLNRD [BBS2_Y648_R643H], the phosphorylation enrichment rises from 0.547 to 1.22.

Going from GGFTCYSDGKK [PROS1_Y266_C267S_YF] to LRRQDYQEILD [SLC35G2_Y403_K400R], the phosphorylation enrichment rises from 1.51 to 1.58.

Sequence KNEIFYQCPDQ [FBXO3_Y223_V221I] has a phosphorylation enrichment of 1.36.

What follows are sequences tested on c-Abl (mouse) in the same assay as above.

Going from SQQTFYRVSNM [ABCD1_Y181_YF] to VRKRSYSAGNA [KANK1_Y324], the phosphorylation enrichment rises from 0.492 to 0.564.

Compared with KRRGPYETSPS [PLPP7_Y172], KSLFHHRQFSA [CPS1_Y1491_Y1491H_YF] is lower in phosphorylation enrichment: 0.526 for the first, 0.431 for the second.

Going from QQLVAYFSKHA [SRC_Y232_YF] to QNTGHYSSENT [TMEFF2_Y361_D364E], the phosphorylation enrichment falls from 0.806 to 0.561.

Compared with SLLTDDSPQLQ [OTC_Y345_Y345D], ESDYPYSSSYE [SRPK2_Y427_T426P] is lower in phosphorylation enrichment: 0.923 for the first, 0.481 for the second.

Going from CQGSLYPSNHD [LRIG1_Y996] to STEVIYLPRRK [STK11_Y36_Q37L], the phosphorylation enrichment falls from 0.567 to 0.466.

First: IEDPFYGNDFD [ACP1_Y133_S137F_YF]
Second: GVLDIYGFDIL [MYO1A_Y382_E385D]
The phosphorylation enrichment of the first is higher: 0.79 for the first, 0.69 for the second.

Compared with FNNFGYGNDGF [HNRNPH3_Y161_YF], LSSEMYVKSFT [F5_Y2149_YF] is higher in phosphorylation enrichment: 0.606 for the first, 0.684 for the second.

Compared with NNRVFYDNSDR [RS1_Y177_G178D], AGEGSYALDSE [PES1_Y265_T264S] is higher in phosphorylation enrichment: 0.453 for the first, 0.64 for the second.

Compared with TFGVVYRAKDK [CDK11B_Y453_YF], EREFKYGAHNH [OAT_Y50_Y55H_YF] is lower in phosphorylation enrichment: 0.584 for the first, 0.44 for the second.

Going from RFLRGYEQDAF [HLA-A_Y137_R138E_YF] to EKLQKYYRQNP [EHHADH_Y682], the phosphorylation enrichment falls from 0.778 to 0.581.

First: QRIYQYIQSRF [DYRK1B_Y273]
Second: RMSRSYPTGLA [ADM_Y52_S50R]
The phosphorylation enrichment of the first is higher: 3.62 for the first, 0.594 for the second.

Compared with RTVDVYFGPRM [KIRREL3_Y332], KVALPYKPYFY [POLE_Y100] is higher in phosphorylation enrichment: 0.65 for the first, 0.681 for the second.

First: NFPGGYSGSVK [MCPH1_Y606_L602F]
Second: HYMELYDLNRD [BBS2_Y648_R643H]
The phosphorylation enrichment of the first is lower: 0.529 for the first, 0.862 for the second.

Going from GGFTCYSDGKK [PROS1_Y266_C267S_YF] to LRRQDYQEILD [SLC35G2_Y403_K400R], the phosphorylation enrichment falls from 0.856 to 0.621.

With KNEIFYQCPDQ [FBXO3_Y223_V221I] the phosphorylation enrichment was 6.62.

These sequences were tested on c-Src in the same assay as above.

Compared with SQQTFYRVSNM [ABCD1_Y181_YF], VRKRSYSAGNA [KANK1_Y324] is higher in phosphorylation enrichment: 0.408 for the first, 0.519 for the second.

Going from KRRGPYETSPS [PLPP7_Y172] to KSLFHHRQFSA [CPS1_Y1491_Y1491H_YF], the phosphorylation enrichment falls from 0.614 to 0.279.

Going from QQLVAYFSKHA [SRC_Y232_YF] to QNTGHYSSENT [TMEFF2_Y361_D364E], the phosphorylation enrichment falls from 0.744 to 0.588.

Going from SLLTDDSPQLQ [OTC_Y345_Y345D] to ESDYPYSSSYE [SRPK2_Y427_T426P], the phosphorylation enrichment rises from 0.453 to 0.784.

Going from CQGSLYPSNHD [LRIG1_Y996] to STEVIYLPRRK [STK11_Y36_Q37L], the phosphorylation enrichment rises from 0.571 to 0.591.

First: IEDPFYGNDFD [ACP1_Y133_S137F_YF]
Second: GVLDIYGFDIL [MYO1A_Y382_E385D]
The phosphorylation enrichment of the first is lower: 0.544 for the first, 2.69 for the second.

Going from FNNFGYGNDGF [HNRNPH3_Y161_YF] to LSSEMYVKSFT [F5_Y2149_YF], the phosphorylation enrichment falls from 0.507 to 0.307.

Going from NNRVFYDNSDR [RS1_Y177_G178D] to AGEGSYALDSE [PES1_Y265_T264S], the phosphorylation enrichment rises from 0.409 to 0.538.

First: TFGVVYRAKDK [CDK11B_Y453_YF]
Second: EREFKYGAHNH [OAT_Y50_Y55H_YF]
The phosphorylation enrichment of the first is higher: 0.513 for the first, 0.319 for the second.

Compared with RFLRGYEQDAF [HLA-A_Y137_R138E_YF], EKLQKYYRQNP [EHHADH_Y682] is lower in phosphorylation enrichment: 0.533 for the first, 0.428 for the second.

First: QRIYQYIQSRF [DYRK1B_Y273]
Second: RMSRSYPTGLA [ADM_Y52_S50R]
The phosphorylation enrichment of the first is higher: 3.17 for the first, 0.377 for the second.

Going from RTVDVYFGPRM [KIRREL3_Y332] to KVALPYKPYFY [POLE_Y100], the phosphorylation enrichment rises from 0.72 to 0.858.

First: NFPGGYSGSVK [MCPH1_Y606_L602F]
Second: HYMELYDLNRD [BBS2_Y648_R643H]
The phosphorylation enrichment of the first is lower: 0.451 for the first, 6.4 for the second.

First: GGFTCYSDGKK [PROS1_Y266_C267S_YF]
Second: LRRQDYQEILD [SLC35G2_Y403_K400R]
The phosphorylation enrichment of the first is higher: 0.471 for the first, 0.376 for the second.

Work on KNEIFYQCPDQ [FBXO3_Y223_V221I] yielded a phosphorylation enrichment of 0.744.

Each sequence was assayed against EPHB1 (UniProt P54762) in the same assay as above.
Chain of EPHB1 (P54762 whole entry, looked up): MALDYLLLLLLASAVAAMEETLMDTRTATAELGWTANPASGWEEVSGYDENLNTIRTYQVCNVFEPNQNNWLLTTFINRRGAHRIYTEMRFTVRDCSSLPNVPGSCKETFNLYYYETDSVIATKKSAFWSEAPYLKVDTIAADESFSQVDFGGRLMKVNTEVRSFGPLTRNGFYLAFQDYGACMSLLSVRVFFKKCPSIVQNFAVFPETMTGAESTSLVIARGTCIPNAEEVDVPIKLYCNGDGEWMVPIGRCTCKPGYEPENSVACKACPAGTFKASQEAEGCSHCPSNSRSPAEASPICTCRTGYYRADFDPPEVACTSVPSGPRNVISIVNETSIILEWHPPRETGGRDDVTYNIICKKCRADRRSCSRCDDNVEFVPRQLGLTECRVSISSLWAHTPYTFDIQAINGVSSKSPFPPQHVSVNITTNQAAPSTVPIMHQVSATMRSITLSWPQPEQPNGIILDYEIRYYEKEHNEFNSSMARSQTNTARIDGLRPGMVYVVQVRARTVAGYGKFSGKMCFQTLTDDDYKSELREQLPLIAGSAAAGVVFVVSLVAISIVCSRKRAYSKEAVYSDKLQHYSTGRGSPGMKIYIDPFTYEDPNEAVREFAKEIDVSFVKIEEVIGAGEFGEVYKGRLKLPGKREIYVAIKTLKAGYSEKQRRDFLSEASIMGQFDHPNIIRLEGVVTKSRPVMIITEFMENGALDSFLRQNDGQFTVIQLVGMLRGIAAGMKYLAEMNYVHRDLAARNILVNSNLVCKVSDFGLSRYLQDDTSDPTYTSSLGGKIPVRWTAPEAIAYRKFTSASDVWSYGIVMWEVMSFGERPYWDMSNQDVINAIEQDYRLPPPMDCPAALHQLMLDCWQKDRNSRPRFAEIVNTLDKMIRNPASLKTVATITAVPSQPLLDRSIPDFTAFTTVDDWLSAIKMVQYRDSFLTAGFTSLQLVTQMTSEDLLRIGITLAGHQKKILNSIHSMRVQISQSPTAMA

Going from SQQTFYRVSNM [ABCD1_Y181_YF] to VRKRSYSAGNA [KANK1_Y324], the phosphorylation enrichment rises from 0.31 to 0.495.

First: KRRGPYETSPS [PLPP7_Y172]
Second: KSLFHHRQFSA [CPS1_Y1491_Y1491H_YF]
The phosphorylation enrichment of the first is lower: 0.345 for the first, 0.418 for the second.

Compared with QQLVAYFSKHA [SRC_Y232_YF], QNTGHYSSENT [TMEFF2_Y361_D364E] is higher in phosphorylation enrichment: 0.664 for the first, 0.814 for the second.

First: SLLTDDSPQLQ [OTC_Y345_Y345D]
Second: ESDYPYSSSYE [SRPK2_Y427_T426P]
The phosphorylation enrichment of the first is higher: 0.928 for the first, 0.589 for the second.

Compared with CQGSLYPSNHD [LRIG1_Y996], STEVIYLPRRK [STK11_Y36_Q37L] is lower in phosphorylation enrichment: 0.582 for the first, 0.419 for the second.

First: IEDPFYGNDFD [ACP1_Y133_S137F_YF]
Second: GVLDIYGFDIL [MYO1A_Y382_E385D]
The phosphorylation enrichment of the first is higher: 0.83 for the first, 0.67 for the second.

First: FNNFGYGNDGF [HNRNPH3_Y161_YF]
Second: LSSEMYVKSFT [F5_Y2149_YF]
The phosphorylation enrichment of the first is lower: 0.403 for the first, 0.609 for the second.

Going from NNRVFYDNSDR [RS1_Y177_G178D] to AGEGSYALDSE [PES1_Y265_T264S], the phosphorylation enrichment rises from 0.412 to 0.461.

Compared with TFGVVYRAKDK [CDK11B_Y453_YF], EREFKYGAHNH [OAT_Y50_Y55H_YF] is higher in phosphorylation enrichment: 0.428 for the first, 0.474 for the second.

Going from RFLRGYEQDAF [HLA-A_Y137_R138E_YF] to EKLQKYYRQNP [EHHADH_Y682], the phosphorylation enrichment rises from 0.498 to 0.568.

Compared with QRIYQYIQSRF [DYRK1B_Y273], RMSRSYPTGLA [ADM_Y52_S50R] is lower in phosphorylation enrichment: 6.1 for the first, 0.382 for the second.

Going from RTVDVYFGPRM [KIRREL3_Y332] to KVALPYKPYFY [POLE_Y100], the phosphorylation enrichment falls from 0.643 to 0.589.

First: NFPGGYSGSVK [MCPH1_Y606_L602F]
Second: HYMELYDLNRD [BBS2_Y648_R643H]
The phosphorylation enrichment of the first is lower: 0.357 for the first, 2.98 for the second.

Compared with GGFTCYSDGKK [PROS1_Y266_C267S_YF], LRRQDYQEILD [SLC35G2_Y403_K400R] is higher in phosphorylation enrichment: 0.689 for the first, 0.838 for the second.

Sequence KNEIFYQCPDQ [FBXO3_Y223_V221I] has a phosphorylation enrichment of 0.688.
